In the RNAGym collection of RNA variant scans (doi:10.1073/pnas.2313332121):

B1: TPR t1 (parent)
chain: GACCAAUCUGCCCUCAGAGCUCGAGAACAUCUUCGGAUGCAGAGGAGGCAGGCUUCGGUGGCGCGAUAGCGCCAACGUCCUCAACCUCCAAUGCAUCCCACCACAUGAUGAUGCCUGAAGAGCCUUGGUUUUUUG

Variants of: B1
Experiment: polymerase ribozyme fitness, log enrichment relative to wild type (log ratio); higher = more active; in vitro selection for triplet polymerase activity
Outline: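 Mutant libraries of both subunits of a heterodimeric triplet polymerase ribozyme were PCR-built, transcribed, and selected once in triplicate, with frozen incubation at −7 °C and capture of gel-excised extended constructs on streptavidin beads before RT-PCR. Illumina sequencing of input and output libraries was filtered to genotypes with ≥10 input reads and ≥1 read per output. Fitness is the logarithm of genotype enrichment over wild-type enrichment, using inverse-variance-weighted replicate averages. The logarithm is base 2.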

| Variant | polymerase ribozyme fitness (log ratio) |
| --- | --- |
| C15U C88A A91C | -2.47 |
| C15G A29G G39U G69U | -4.2 |
| A16G C64U G77U | -1.55 |
| A16U U32A A46U A103C A111G | -5.71 |
| C15U G44U C85A C94U G117C A118U | -4.78 |
| C15U A27G U32A A46C C82A G117U | -5.76 |
| A16G C70A A95C | -4.17 |
| C15U C98U | -2.28 |
| G17U G61C | -3.76 |
| C15U A46G G69C C86G C124U | -3.98 |
| A16U C73A | -2.64 |
| A16C C72A G110U | -3.99 |
| C15G A29G C64U C76G C99U U112A | -6.38 |
| C15U G39U G52A | -3.14 |
| C15U U96A A119G | 0.622 |
| A16U C62G C123A | -3 |
| G17C C72U C88A | -4.4 |
| C15G C40A U92C | -4.63 |
| C15U U81G C82G A119G G120U C123A | -0.519 |
| G17C U54G G61A C94A U112G | -6.29 |
| G17A A95U | -3.81 |
| G17U A41C G61A C89A | -4.06 |
| C15U C53A A83C | -1.46 |
| G17U C62G A83U C123G | -5.79 |

| Variant | polymerase ribozyme fitness (log ratio) |
| --- | --- |
| C15U U87A | -2.53 |
| C15U G47A G113C A121C | -4.25 |
| C15A U92A | -4.5 |
| C15G G48A C85G | -3.62 |
| C15U A105U | -3.42 |
| G17U G19U G69U A84U G93A | -4.27 |
| C15U C34A G69C | -5.57 |
| G17A G42U G57A G120C | -3.79 |
| C15U G60C A91U U129A | -4.69 |
| G17A G39U G113C | -6.88 |
| G17A A43G | -3.39 |
| A16G C40G | -0.424 |
| G17A U116C G120U | -5.7 |
| A16G U92G C98G C114A | -6.53 |
| C15U A100U G117U | -2.41 |
| G17U G69U A111G U133G | 0.0717 |
| C15U G52C C62G U78A | -3.9 |
| C15G A90C | -3.94 |
| C15U G71U | -1.38 |
| G17A U78C | -3.04 |
| G17U G52C C72U | -2.43 |
| A16U C62A A105C | -4.73 |
| A16U G17A G93A | -4.25 |
| G17U G60C A121G | -0.0519 |

| Variant | polymerase ribozyme fitness (log ratio) |
| --- | --- |
| G17U G63U C73U | -4.41 |
| A16U G60C | -2.17 |
| C15G A37C C73G G120C G128U | -4.14 |
| C15G C88G G120C | -1.47 |
| A16C C82U G110A C123G U132A | -4.33 |
| C15U C62A C86U A111C U129G | -4.97 |
| C15U G69U U78C | -0.901 |
| C15U A37C C76G | -2.14 |
| A16U A18U | -3.06 |
| G17A C86G | -4.48 |
| G17A A43U C88A U96A U129A | -3.98 |
| G17C G63U | -4.39 |
| G17C A41U U130A | -4.18 |
| C15G C88G | -3.07 |
| G17C U38G C70G A95C C99A C104U A105G G110C | -6.76 |
| C15U A41G | -1.83 |
| A16U C22U | -3.56 |
| A16C C49G C101A | -4.66 |
| G17U A37C C53A A83U A90U A91C | -3.91 |
| G17U A46U C53G G63C A83C C85G C89U A121C C123U U126A | -6.58 |
| A16C G45C U59A C72A U112C G135U | -4.45 |
| C15G G60A G117U | -0.472 |
| C15A U33A G117A | -5.68 |
| C15G A43U C56U | -3.19 |

| Variant | polymerase ribozyme fitness (log ratio) |
| --- | --- |
| A16C G42A | -3.47 |
| A16U C73U A121C | 0.586 |
| G17A U55G C123A | -2.36 |
| C15G G44C G47A G69U | -3.06 |
| C15G C70G C86A G120A | -4.5 |
| G17C U78A A111U | -6.19 |
| C15G G47U | -3.95 |
| G17A A90C | -3.17 |
| C15U C53G C82A | -1.78 |
| C15G C79U | -1.96 |
| C15U A18G A37G U54A G65C A100U C115A | -5.35 |
| C15U C40U G61U | -0.881 |
| A16U C123U | 0.19 |
| A16U C123A | -1.57 |
| C15U C34A G60C C82G A105G G113U | -6.14 |
| C15U G58C G120C | 0.694 |
| G17A G60U C79A | -5.25 |
| A16U C72A | -1.32 |
| A16U A24G C115G | -6.98 |
| G17A C53A C104U U133A | -2.46 |
| G17U C72U C89A | -3.71 |
| C15U G57U C102A U116G C123G | -4.08 |
| G17C A46G C124A | -1.43 |
| G17A C20U G57C G61A | -4.32 |

| Variant | polymerase ribozyme fitness (log ratio) |
| --- | --- |
| C15U G44C G93A | -2.63 |
| G17A C80U | -3.53 |
| G17A C80A | -5.66 |
| C15G G71A U81C | -4.61 |
| G17A C70U | -3.03 |
| A16U | -1.46 |
| A16G | -0.761 |
| A16C | -2.19 |
| C15U C72G | -1.64 |
| G17A C79U U106A A111C | -4.21 |
| C15U A83G | -1.88 |
| C15U A29U C40A A46C | -5.8 |
| C15A U33C C70U A111U | -5.94 |
| G17A A43U C73G G120A | -3.38 |
| G17A G63A | -4.79 |
| C15G G44U C72U | -4.59 |
| G17C G47A A95U | -5.58 |
| A16C C64G G69U C94G G110U | -4.25 |
| C15U G60U | -1.08 |
| A16U C20A C73G G117U A119U | -5.33 |
| C15A U54A C56G C72A | -2.89 |
| G17A C40U | -3.88 |
| A16G G44A C97G U112C U133A | -4.45 |
| G17A A46C G63U A74U C89G C102U A105U | -7.26 |

| Variant | polymerase ribozyme fitness (log ratio) |
| --- | --- |
| A16C C20U C70U | -4.3 |
| C15U C73U A83G | -2.56 |
| A16U A41G G63U C115U | -4.47 |
| A16C C79U U87A C124U | -0.106 |
| C15G A37C C49U C53U | -4.47 |
| G17U C20U C49A C73G C115A | -1.32 |
| G17C U21A G39A C72A U112C C115A | -0.984 |
| A16C C123G | -0.273 |
| G17C U133G G135U | -3.94 |
| A16U G69U A121C | 1.22 |
| A16G C40A C86U A90U A91C U106A U112G | -4.19 |
| A16G G52A U116C | 0.826 |
| C15G U96G G120A | -1.53 |
| C15U C49A C72A U129C U134A G135C | -1.14 |
| C15G A37G C62U C76U A118U C124U | -2.37 |
| C15U C56U U87G G113A U130A | -3.68 |
| C15G G52U C89G G117C | -1.36 |
| G17U C123A | -1.2 |
| C15U A18C | -3.52 |
| C15U C101U | -1.84 |
| C15U C101A | -2.35 |
| C15U A18U G44U G69U G117C A121C | -4.92 |
| C15G G107A | -5.32 |
| C15U G122A | -1.11 |

| Variant | polymerase ribozyme fitness (log ratio) |
| --- | --- |
| A16U C34A C64A U109G C123A U129G | -6.08 |
| C15G C97U C124U | -1.59 |
| A16U C79U G110A | -2.61 |
| A16C C115G | -3.37 |
| C15U C88U A118G | -1.82 |
| A16C C98U G110A C124A | -4.72 |
| G17A A37U A50C | -4.99 |
| A16C C49U G60U U78A | -3.42 |
| A16G G60U A90U | -2.82 |
| G17A U54C G120U | -1.75 |
| G17U C40A G48U C70U C99A G113A G117C | -6.87 |
| G17U G69U A84C C124A | 1.63 |
| C15U G93A | -1.99 |
| A16U G23U G61A A84C C114A G117U | -6.96 |
| G17A G52C G60C U81C C115G | -3.56 |
| C15U C76U A100U G120C | 0.0455 |
| G17C A43C A83U | -6.26 |
| C15U G42A G48A C79U A105C U112A G113U C124A | -4.71 |
| G17U C20U A26G G42C A83U C124U U130G | -5.83 |
| A16C C72A | -3.3 |
| C15G C40U C56A C73U C80A C124G | -5.12 |
| G17U C97U | -3.45 |
| C15U C28G G39U C124A U129G | -5.23 |
